From article PMC10213043, “Different viral effectors suppress hormone-mediated antiviral immunity of rice coordinated by OsNPR1” (Nature Communications, 2023) come the findings set out here.

This data set concerns the molecule itself. Briefly: pull-down; purified proteins, 5 µg GST-OsNPR1 with 5 µg MBP-HIS-OsNPR1 or 5 µg MBP-HIS-OsCUL3a, plus 1 or 10 µg MBP-HIS-P2 (or 10 µg MBP-HIS); held on glutathione sepharose beads, 4 °C, 2 h, washed with 1x PBS.

B1: GST-OsNPR1 (natural protein)
chain: MEPPTSHVTNAFSDSDSASVEEGGADADADVEALRRLSDNLAAAFRSPEDFAFLADARIAVPGGGGGGGDLLVHRCVLSARSPFLRGVFARRAAAAAGGGGEDGGERLELRELLGGGGEEVEVGYEALRLVLDYLYSGRVGDLPKAACLCVDEDCAHVGCHPAVAFMAQVLFAASTFQVAELTNLFQRRLLDVLDKVEVDNLLLILSVANLCNKSCMKLLERCLDMVVRSNLDMITLEKSLPPDVIKQIIDARLSLGLISPENKGFPNKHVRRIHRALDSDDVELVRMLLTEGQTNLDDAFALHYAVEHCDSKITTELLDLALADVNHRNPRGYTVLHIAARRREPKIIVSLLTKGARPADVTFDGRKAVQISKRLTKQGDYFGVTEEGKPSPKDRLCIEILEQAERRDPQLGEASVSLAMAGESLRGRLLYLENRVALARIMFPMEARVAMDIAQVDGTLEFNLGSGANPPPERQRTTVDLNESPFIMKEEHLARMTALSKTVELGKRFFPRCSNVLDKIMDDETDPVSLGRDTSAEKRKRFHDLQDVLQKAFHEDKEENDRSGLSSSSSSTSIGAIRPRR
notes: also called second copy in the self-association pull-down: MBP-HIS-OsNPR1; MBP-OsNPR1; source: E. coli Rosetta (DE3), purified
In the case of B1, the binding result is given as “binds”.
